# “And” between values parts separate entries of the source, which are not always exact repeats. Equal values may be shown once.
# B1: Stat5a (wild type), from Epo-stimulated 293T cells (natural protein)
# chain: MAGWIQAQQLQGDALRQMQVLYGQHFPIEVRHYLAQWIESQPWDAIDLDNPQDRGQATQLLEGLVQELQKKAEHQVGEDGFLLKIKLGHYATQLQNTYDRCPMELVRCIRHILYNEQRLVREANNCSSPAGVLVDAMSQKHLQINQRFEELRLITQDTENELKKLQQTQEYFIIQYQESLRIQAQFAQLGQLNPQERMSRETALQQKQVSLETWLQREAQTLQQYRVELAEKHQKTLQLLRKQQTIILDDELIQWKRRQQLAGNGGPPEGSLDVLQSWCEKLAEIIWQNRQQIRRAEHLCQQLPIPGPVEEMLAEVNATITDIISALVTSTFIIEKQPPQVLKTQTKFAATVRLLVGGKLNVHMNPPQVKATIISEQQAKSLLKNENTRNECSGEILNNCCVMEYHQATGTLSAHFRNMSLKRIKRADRRGAESVTEEKFTVLFESQFSVGSNELVFQVKTLSLPVVVIVHGSQDHNATATVLWDNAFAEPGRVPFAVPDKVLWPQLCEALNMKFKAEVQSNRGLTKENLVFLAQKLFNISSNHLEDYNSMSVSWSQFNRENLPGWNYTFWQWFDGVMEVLKKHHKPHWNDGAILGFVNKQQAHDLLINKPDGTFLLRFSDSEIGGITIAWKFDSPDRNLWNLKPFTTRDFSIRSLADRLGDLNYLIYVFPDRPKDEVFAKYYTPVLAKAVDGYVKPQIKQVVPEFVNASTDAGASATYMDQAPSPVVCPQPHYNMYPPNPDPVLDQDGEFDLDESMDVARHVEELLRRPMDSLDARLSPPAGLFTSARSSLS
# Molecular target: the molecule itself
# Assay: native gel or EMSA
protein,measurement,value
B1,stoichiometry N,4 and 2
